The text below walks through data of publication PMC10250209, “UV-DDB stimulates the activity of SMUG1 during base excision repair of 5-hydroxymethyl-2'-deoxyuridine moieties”.

This data set concerns the target UV-DDB (DDB1-DDB2 heterodimer);SMUG1 WT (UniProt Q16531+Q92466+Q53HV7). Put plainly: single-molecule DNA tightrope. The conditions noted are these: both Qdot-labeled; 91.1% of co-localized particles stationary and persistent; tetrahydrofuran abasic site every 2 kb; EMSA: 8 nM DNA, 20 mM HEPES pH 7.5, 150 mM NaCl, 2 mM DTT (5 mM for SMUG1), 5% glycerol, 0.5 mg/ml BSA (0.5 mg/l [sic] for SMUG1), +/- 1.5 mM MgCl2, RT 20 min. (Mobility shift assays separate free from complexed probe on a gel.)

Chain of UV-DDB (DDB1-DDB2 heterodimer);SMUG1 WT (Q16531 whole entry, chain 1 of 3): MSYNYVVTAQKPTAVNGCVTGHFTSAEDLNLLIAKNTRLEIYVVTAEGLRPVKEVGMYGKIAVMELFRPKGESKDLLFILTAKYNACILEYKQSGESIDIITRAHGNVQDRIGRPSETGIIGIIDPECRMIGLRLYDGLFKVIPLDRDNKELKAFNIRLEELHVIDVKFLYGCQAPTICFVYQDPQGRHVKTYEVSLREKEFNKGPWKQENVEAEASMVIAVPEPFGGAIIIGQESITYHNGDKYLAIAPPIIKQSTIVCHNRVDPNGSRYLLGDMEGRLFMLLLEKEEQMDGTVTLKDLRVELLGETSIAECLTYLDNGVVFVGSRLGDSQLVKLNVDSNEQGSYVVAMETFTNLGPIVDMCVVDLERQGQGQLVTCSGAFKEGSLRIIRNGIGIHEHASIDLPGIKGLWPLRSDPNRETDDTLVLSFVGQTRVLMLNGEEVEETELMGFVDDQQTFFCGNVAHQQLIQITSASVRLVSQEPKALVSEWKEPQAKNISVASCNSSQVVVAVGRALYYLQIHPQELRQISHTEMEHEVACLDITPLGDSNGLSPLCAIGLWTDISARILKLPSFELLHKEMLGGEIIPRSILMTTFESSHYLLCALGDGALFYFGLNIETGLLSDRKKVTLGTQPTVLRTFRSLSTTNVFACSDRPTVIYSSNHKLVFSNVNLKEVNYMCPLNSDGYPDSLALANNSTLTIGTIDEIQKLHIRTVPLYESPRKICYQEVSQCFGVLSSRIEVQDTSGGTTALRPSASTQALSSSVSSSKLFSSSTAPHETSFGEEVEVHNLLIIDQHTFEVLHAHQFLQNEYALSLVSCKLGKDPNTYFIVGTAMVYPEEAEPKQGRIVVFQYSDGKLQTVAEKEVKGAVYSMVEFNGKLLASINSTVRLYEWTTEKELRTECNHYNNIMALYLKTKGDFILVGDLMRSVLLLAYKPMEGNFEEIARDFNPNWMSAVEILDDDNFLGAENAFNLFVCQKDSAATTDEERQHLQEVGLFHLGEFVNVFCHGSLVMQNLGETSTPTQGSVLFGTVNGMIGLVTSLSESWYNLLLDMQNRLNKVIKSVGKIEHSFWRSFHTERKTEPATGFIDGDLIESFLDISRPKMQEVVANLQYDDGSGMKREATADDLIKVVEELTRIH
Chain of UV-DDB (DDB1-DDB2 heterodimer);SMUG1 WT (Q92466 whole entry, chain 2 of 3): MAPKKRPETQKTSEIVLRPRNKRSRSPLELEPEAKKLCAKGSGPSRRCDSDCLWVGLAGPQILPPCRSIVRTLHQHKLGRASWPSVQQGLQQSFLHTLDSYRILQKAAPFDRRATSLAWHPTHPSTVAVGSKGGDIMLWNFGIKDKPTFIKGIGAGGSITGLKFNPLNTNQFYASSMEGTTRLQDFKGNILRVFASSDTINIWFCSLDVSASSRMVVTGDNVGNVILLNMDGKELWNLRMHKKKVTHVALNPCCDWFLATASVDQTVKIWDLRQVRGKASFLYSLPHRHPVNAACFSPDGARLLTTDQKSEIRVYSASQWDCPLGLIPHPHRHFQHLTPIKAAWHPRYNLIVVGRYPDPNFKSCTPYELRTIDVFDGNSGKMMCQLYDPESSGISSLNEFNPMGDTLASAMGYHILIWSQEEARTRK
Chain of UV-DDB (DDB1-DDB2 heterodimer);SMUG1 WT (Q53HV7 whole entry, chain 3 of 3): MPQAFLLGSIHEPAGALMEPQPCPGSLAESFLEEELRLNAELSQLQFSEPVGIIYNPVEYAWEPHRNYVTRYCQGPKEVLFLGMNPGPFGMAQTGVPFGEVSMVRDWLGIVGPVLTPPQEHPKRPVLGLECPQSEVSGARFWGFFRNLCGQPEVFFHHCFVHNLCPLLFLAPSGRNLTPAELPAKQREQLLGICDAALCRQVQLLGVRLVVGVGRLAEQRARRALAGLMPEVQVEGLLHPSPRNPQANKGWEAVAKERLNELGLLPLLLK

For “DNA tightrope with one THF site every 2 kb”, the binding (% of particles co-localized) stood at 15.6.
